Measured values reported in the supplement of paper PMC11246515.
± gives the standard deviation of the averaged measurements.

Experiment: total protein half-life in vivo (active degradation + dilution); higher = more stable protein
[1] = E. coli NCM3722 delta-clpP delta-lon delta-hslV, growth: N-lim chemostat, doubling time 6 h
[2] = E. coli NCM3722 delta-lon, growth: N-lim chemostat, doubling time 6 h
[3] = E. coli NCM3722 delta-smpB, growth: N-lim chemostat, doubling time 6 h
[4] = wild type E. coli NCM3722, growth: C-lim chemostat, doubling time 12 h
[5] = wild type E. coli NCM3722, growth: N-lim chemostat, doubling time 12 h
[6] = E. coli NCM3722 delta-hslV, growth: N-lim chemostat, doubling time 6 h
[7] = wild type E. coli NCM3722, growth: C-lim chemostat, doubling time 3 h
[8] = wild type E. coli NCM3722, growth: C-lim chemostat, doubling time 6 h
[9] = wild type E. coli NCM3722, growth: N-lim chemostat, doubling time 6 h
[10] = wild type E. coli NCM3722, growth: P-lim chemostat, doubling time 6 h
[11] = wild type E. coli NCM3722, growth: P-lim chemostat, doubling time 12 h
[12] = E. coli NCM3722 delta-clpP, growth: N-lim chemostat, doubling time 6 h

Sequence | total protein half-life in vivo [1] [h] | total protein half-life in vivo [2] [h] | total protein half-life in vivo [3] [h] | total protein half-life in vivo [4] [h] | total protein half-life in vivo [5] [h] | total protein half-life in vivo [6] [h] | total protein half-life in vivo [7] [h] | total protein half-life in vivo [8] [h] | total protein half-life in vivo [9] [h] | total protein half-life in vivo [10] [h] | total protein half-life in vivo [11] [h] | total protein half-life in vivo [12] [h]
MKKRHLLSLLALGISTACYGETYPAPIGPSQSDFGGVGLLQTPTARMAREGELSLNYRDNDQYRYYSASVQLFPWLETTLRYTDVRTRQYSSVEAFSGDQTYKDKAFDLKLRLWEESYWLPQVAVGARDIGGTGLFDAEYLVASKAWGPFDFTLGLGWGYLGTSGNVKNPLCSASDKYCYRDNSYKQAGSIDGSQMFHGPASLFGGVEYQTPWQPLRLKLEYEGNNYQQDFAGKLEQKSKFNVGAIYRVTDWADVNLSYERGNTFMFGVTLRTNFNDLRPSYNDNARPQYQPQPQDAILQHSVVANQLTLLKYNAGLADPQIQAKGDTLYVTGEQVKYRDSREGIIRANRIVMNDLPDGIKTIRITENRLNMPQVTTETDVASLKNHLAGEPLGHETTLAQKRVEPVVPQSTEQGWYIDKSRFDFHIDPVLNQSVGGPENFYMYQLGVMGTADLWLTDHLLTTGSLFANLANNYDKFNYTNPPQDSHLPRVRTHVREYVQNDVYVNNLQANYFQHLGNGFYGQVYGGYLETMFGGAGAEVLYRPLDSNWAFGLDANYVKQRDWRSAKDMMKFTDYSVKTGHLTAYWTPSFAQDVLVKASVGQYLAGDKGGTLEIAKRFDSGVVVGGYATITNVSKEEYGEGDFTKGVYVSVPLDLFSSGPTRSRAAIGWTPLTRDGGQQLGRKFQLYDMTSDRSVNFR | 5.44 | 6.75 ± 0.42 | 5.88 ± 0.37 | 12.6 | 11.6 |  |  |  |  |  |  | 
MKKSILALSLLVGLSTAASSYAALPETVRIGTDTTYAPFSSKDAKGDFVGFDIDLGNEMCKRMQVKCTWVASDFDALIPSLKAKKIDAIISSLSITDKRQQEIAFSDKLYAADSRLIAAKGSPIQPTLDSLKGKHVGVLQGSTQEAYANETWRSKGVDVVAYANQDLVYSDLAAGRLDAALQDEVAASEGFLKQPAGKDFAFAGSSVKDKKYFGDGTGVGLRKDDAELTAAFNKALGELRQDGTYDKMAKKYFDFNVYGD | 6.69 ± 0.15 | 6.79 ± 0.077 | 5.31 ± 0.11 | 11.58 ± 0.11 | 8.71 ± 0.59 | 6.37 ± 0.68 | 3.22 ± 0.3 | 6.33 ± 0.92 | 5.27 ± 0.47 | 5.98 ± 0.25 | 11.4 ± 1.6 | 
MKKSITTLDLNLLLCLQLLMQERSVTKAAKRINVTPSAVSKSLAKLRAWFDDPLFVNSPLGLSPTPLMVSMEQNLAEWMQMSNLLLDKPHHQTPRGLKFELAAESPLMMIMLNALSKQIYQRYPQATIKLRNWDYDSLDAITRGEVDIGFSGRESHPRSRELLSSLPLAIDYEVLFSDVPCVWLRKDHPALHQTWNLDTFLRYPHISICWEQSDTWALDNVLQELGRERTIAMSLPEFEQSLFMAAQPDNLLLATAPRYCQYYNQLHQLPLVALPLPFDESQQKKLEVPFTLLWHKRNSHNPKIVWLRETIKNLYASMA | 5.87 ± 0.7 | 6.37 ± 0.5 | 4.519 ± 0.029 |  | 12.2 | 5.91 ± 0.94 |  |  | 4.74 |  | 11.2 ± 0.6 | 5.16 ± 1
MKKSLLGLTFASLMFSAGSAVAADYKIDKEGQHAFVNFRIQHLGYSWLYGTFKDFDGTFTFDEKNPAADKVNVTINTTSVDTNHAERDKHLRSADFLNTAKYPQATFTSTSVKKDGDELDITGDLTLNGVTKPVTLEAKLIGQGDDPWGGKRAGFEAEGKIKLKDFNIKTDLGPASQEVDLIISVEGVQQK [P0A8X2] | 5.61 ± 0.24 | 6.59 ± 0.48 | 6.61 ± 1.1 | 10.6 ± 4 | 10.9 ± 2.2 | 6.38 ± 0.11 | 3.22 ± 0.24 |  | 6.19 ± 0.62 | 6.05 ± 0.28 | 14 ± 1.4 | 6.32 ± 0.21
MKKTQRKEIENVTNITGVRQIELWRRDDLQHPRLDEVAEEVPVALVYNGISHVVMMASPKDLEYFALGFSLSEGIIESPRDIFGMDVVPSCNGLEVQIELSSRRFMGLKERRRALAGRTGCGVCGVEQLNDIGKPVQPLPFTQTFDLNKLDDALRHLNDFQPVGQLTGCTHAAAWMLPSGELVGGHEDVGRHVALDKLLGRRSQEGESWQQGAVLVSSRASYEMVQKSAMCGVEILFAVSAATTLAVEVAERCNLTLVGFCKPGRATVYTHPQRLSN | 5.53 ± 0.71 | 4.1 ± 0.3 | 3.793 ± 0.019 | 9.01 ± 0.31 | 6.61 ± 0.14 | 3.83 ± 0.57 | 2.89 ± 0.25 | 4.79 ± 0.16 | 3.88 ± 0.38 | 4.99 ± 0.11 | 10.5 ± 0.64 | > 8
MKKTRTANLHHLYHEPLPENLKLTPKVEVDNVHQRQTTDVYEHALTITAWQQIYDQLHPGKFHGEFTEILLDDIQVFREYTGLALRQSCLVWPNSFWFGIPATRGEQGFIGSQCLGSAEIATRPGGTEFELSTPDDYTILGVVLSEDVITRQANFLHNPDRVLHMLRNQSALEVKEQHKAALWGFVQQALATFCENPENLHQPAVRKVLGDNLLMAMGAMLEEAQPMVTAESISHQSYRRLLSRAREYVLENMSEPVTVLDLCNQLHVSRRTLQNAFHAILGIGPNAWLKRIRLNAVRRELISPWSQSMTVKDAAMQWGFWHLGQFATDYQQLFSEKPSLTLHQRMREWG | 5.53 ± 0.77 |  |  |  | 2.75 |  |  | 1.42 |  | 1.29 |  | 
